Blank lines part the entries; values can stand above or below the substance they belong to.
Tests used:
RXFP2(1-65) P4F (human) = test: NMR titration; 2D 1H-15N HSQC; increasing concentrations of titrant against 50 µM 15N-labelled RXFP2(1-65) P4F; 25 °C, 50 mM imidazole, 10 mM CaCl2, pH 6.8
[1] = biological target: RXFP1 LDLa-linker (human); test: NMR titration; RXFP1 LDLa-linker titrated with truncated relaxin (Supp Fig. 5)
RXFP2 S45A (human) [2] = biological target: RXFP2 S45A (human)
[3] = biological target: Relaxin family peptide receptor 2 (RXFP2), wild type (human) (UniProt Q8WXD0)
RXFP2 T44A (human) [4] = biological target: RXFP2 T44A (human)
RXFP2-F51A (human) [5] = biological target: RXFP2-F51A (human)
RXFP2-G42A (human) [6] = biological target: RXFP2-G42A (human)
[7] = biological target: Relaxin family peptide receptor 2 (RXFP2), wild type (human) (UniProt Q8WXD0); test: europium-labelled ligand saturation binding on whole cells (time-resolved fluorescence); HEK293T cells transiently transfected with receptor; increasing concentrations of Eu-INSL3 or Eu-H2 relaxin with or without 1 µM unlabeled ligand, 1 h incubation; one-site binding curves
RXFP2 S45A (human) [8] = test: as above
RXFP2 T44A (human) [9] = test: as above
RXFP2-F51A (human) [10] = test: as above
RXFP2 W47A (human) = test: as above
RXFP2 D43A (human) = test: as above
RXFP2-G42A (human) [11] = test: as above
RXFP2-G46A (human) = test: as above

Sequence of UniProt Q8WXD0 (Q8WXD0 whole entry): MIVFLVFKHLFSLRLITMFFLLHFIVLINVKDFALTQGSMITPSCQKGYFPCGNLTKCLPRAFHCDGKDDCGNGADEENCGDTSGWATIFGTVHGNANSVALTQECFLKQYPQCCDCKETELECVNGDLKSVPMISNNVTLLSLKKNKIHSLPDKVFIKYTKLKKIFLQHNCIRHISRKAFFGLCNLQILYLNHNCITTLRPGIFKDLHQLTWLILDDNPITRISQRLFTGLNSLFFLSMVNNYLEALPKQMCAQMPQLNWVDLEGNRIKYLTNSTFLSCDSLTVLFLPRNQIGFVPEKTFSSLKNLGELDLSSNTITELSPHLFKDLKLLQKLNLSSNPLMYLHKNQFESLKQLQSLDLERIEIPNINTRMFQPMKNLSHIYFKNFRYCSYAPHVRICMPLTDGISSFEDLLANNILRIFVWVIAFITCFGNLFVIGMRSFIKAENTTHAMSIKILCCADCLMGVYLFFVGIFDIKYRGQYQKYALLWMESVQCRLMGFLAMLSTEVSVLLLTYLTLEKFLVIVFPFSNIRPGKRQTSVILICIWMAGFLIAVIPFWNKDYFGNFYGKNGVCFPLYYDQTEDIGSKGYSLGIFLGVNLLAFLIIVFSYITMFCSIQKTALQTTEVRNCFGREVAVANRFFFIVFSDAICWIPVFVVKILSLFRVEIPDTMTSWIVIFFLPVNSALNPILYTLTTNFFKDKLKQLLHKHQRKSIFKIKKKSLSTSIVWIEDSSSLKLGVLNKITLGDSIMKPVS

- Kd (RXFP2(1-65) P4F (human)): 330 µM
- Kd [1]: 90 µM
Substance: B5-29 [B-K9R,A-K9/17R] H2 relaxin (ligand)

- Emax: maximal cAMP response (pCRE beta-galactosidase reporter, HEK293T) to unlabelled H2 relaxin, max value based on 1 µM activation (RXFP2 S45A (human) [2]): 100%
- pEC50 of the cAMP response (pCRE beta-galactosidase reporter, HEK293T) to unlabelled H2 relaxin (RXFP2 S45A (human) [2]): 9.03
- Emax: maximal cAMP response (pCRE beta-galactosidase reporter, HEK293T) to unlabelled H2 relaxin, max value based on 1 µM activation [3]: 100%
- pEC50 of the cAMP response (pCRE beta-galactosidase reporter, HEK293T) to unlabelled H2 relaxin [3]: 8.45
- Emax: maximal cAMP response (pCRE beta-galactosidase reporter, HEK293T) to unlabelled H2 relaxin, max value based on 1 µM activation (RXFP2 T44A (human) [4]): 53%
- pEC50 of the cAMP response (pCRE beta-galactosidase reporter, HEK293T) to unlabelled H2 relaxin (RXFP2 T44A (human) [4]): 8.63
- Emax: maximal cAMP response (pCRE beta-galactosidase reporter, HEK293T) to unlabelled H2 relaxin, max value based on 1 µM activation (RXFP2-F51A (human) [5]): 18.8%
- pEC50 of the cAMP response (pCRE beta-galactosidase reporter, HEK293T) to unlabelled H2 relaxin (RXFP2-F51A (human) [5]): < 6
- Emax: maximal cAMP response (pCRE beta-galactosidase reporter, HEK293T) to unlabelled H2 relaxin, max value based on 1 µM activation (RXFP2-G42A (human) [6]): 75.2%
- pEC50 of the cAMP response (pCRE beta-galactosidase reporter, HEK293T) to unlabelled H2 relaxin (RXFP2-G42A (human) [6]): 7.98
- Kd [7]: 9.96 nM
Substance: Europium (Eu3+)-labelled H2 relaxin (ligand)

- Emax: maximal cAMP response (pCRE beta-galactosidase reporter, HEK293T) to unlabelled INSL3 (% maximal RXFP2 activity) (RXFP2 S45A (human) [2]): 92.2
- pEC50 of the cAMP response (pCRE beta-galactosidase reporter, HEK293T) to unlabelled INSL3 (RXFP2 S45A (human) [2]): 10.1
- Emax: maximal cAMP response (pCRE beta-galactosidase reporter, HEK293T) to unlabelled INSL3 (% maximal RXFP2 activity) [3]: 100
- pEC50 of the cAMP response (pCRE beta-galactosidase reporter, HEK293T) to unlabelled INSL3 [3]: 9.99
- Emax: maximal cAMP response (pCRE beta-galactosidase reporter, HEK293T) to unlabelled INSL3 (% maximal RXFP2 activity) (RXFP2 T44A (human) [4]): 98.7
- pEC50 of the cAMP response (pCRE beta-galactosidase reporter, HEK293T) to unlabelled INSL3 (RXFP2 T44A (human) [4]): 10.5
- Emax: maximal cAMP response (pCRE beta-galactosidase reporter, HEK293T) to unlabelled INSL3 (% maximal RXFP2 activity) (RXFP2-F51A (human) [5]): 39.8
- pEC50 of the cAMP response (pCRE beta-galactosidase reporter, HEK293T) to unlabelled INSL3 (RXFP2-F51A (human) [5]): 9.36
- Emax: maximal cAMP response (pCRE beta-galactosidase reporter, HEK293T) to unlabelled INSL3 (% maximal RXFP2 activity) (RXFP2-G42A (human) [6]): 39.5
- pEC50 of the cAMP response (pCRE beta-galactosidase reporter, HEK293T) to unlabelled INSL3 (RXFP2-G42A (human) [6]): 8.98
- Kd (RXFP2 S45A (human) [8]): 1.05 nM
- Kd [7]: 1.07 nM
- Kd (RXFP2 T44A (human) [9]): 2.11 nM
- Kd (RXFP2-F51A (human) [10]): 1.55 nM
- Kd (RXFP2 W47A (human)): 1.5 nM
- Kd (RXFP2 D43A (human)): 1.18 nM
- Kd (RXFP2-G42A (human) [11]): 1.93 nM
- Kd (RXFP2-G46A (human)): 1.51 nM
Substance: Europium (Eu3+)-labelled INSL3 (ligand)

Source: PMC5468325
